Assay results taken from IntAct's records for PubMed 23136403.

B1: Catenin alpha-3 (Homo sapiens), Q9UI47-1 (parent)
chain: MSAETPITLNIDPQDLQVQTFTVEKLLEPLIIQVTTLVNCPQNPSSRKKGRSKRASVLLASVEEATWNLLDKGEKIAQEATVLKDELTASLEEVRKESEALKVSAERFTDDPCFLPKREAVVQAARALLAAVTRLLILADMIDVMCLLQHVSAFQRTFESLKNVANKSDLQKTYQKLGKELENLDYLAFKRQQDLKSPNQRDEIAGARASLKENSPLLHSICSACLEHSDVASLKASKDTVCEEIQNALNVISNASQGIQNMTTPPEPQAATLGSALDELENLIVLNPLTVTEEEIRPSLEKRLEAIISGAALLADSSCTRDLHRERIIAECNAIRQALQDLLSEYMNNAGKKERSNTLNIALDNMCKKTRDLRRQLRKAIIDHVSDSFLDTTVPLLVLIEAAKNGREKEIKEYAAIFHEHTSRLVEVANLACSMSTNEDGIKIVKIAANHLETLCPQIINAALALAARPKSQAVKNTMEMYKRTWENHIHVLTEAVDDITSIDDFLAVSESHILEDVNKCIIALRDQDADNLDRAAGAIRGRAARVAHIVTGEMDSYEPGAYTEGVMRNVNFLTSTVIPEFVTQVNVALEALSKSSLNVLDDNQFVDISKKIYDTIHDIRCSVMMIRTPEELEDVSDLEEEHEVRSHTSIQTEGKTDRAKMTQLPEAEKEKIAEQVADFKKVKSKLDAEIEIWDDTSNDIIVLAKNMCMIMMEMTDFTRGKGPLKHTTDVIYAAKMISESGSRMDVLARQIANQCPDPSCKQDLLAYLEQIKFYSHQLKICSQVKAEIQNLGGELIMSALDSVTSLIQAAKNLMNAVVQTVKMSYIASTKIIRIQSPAGPRHPVVMWRMKAPAKKPLIKREKPEETCAAVRRGSAKKKIHPLQVMSEFRGRQIY
partner: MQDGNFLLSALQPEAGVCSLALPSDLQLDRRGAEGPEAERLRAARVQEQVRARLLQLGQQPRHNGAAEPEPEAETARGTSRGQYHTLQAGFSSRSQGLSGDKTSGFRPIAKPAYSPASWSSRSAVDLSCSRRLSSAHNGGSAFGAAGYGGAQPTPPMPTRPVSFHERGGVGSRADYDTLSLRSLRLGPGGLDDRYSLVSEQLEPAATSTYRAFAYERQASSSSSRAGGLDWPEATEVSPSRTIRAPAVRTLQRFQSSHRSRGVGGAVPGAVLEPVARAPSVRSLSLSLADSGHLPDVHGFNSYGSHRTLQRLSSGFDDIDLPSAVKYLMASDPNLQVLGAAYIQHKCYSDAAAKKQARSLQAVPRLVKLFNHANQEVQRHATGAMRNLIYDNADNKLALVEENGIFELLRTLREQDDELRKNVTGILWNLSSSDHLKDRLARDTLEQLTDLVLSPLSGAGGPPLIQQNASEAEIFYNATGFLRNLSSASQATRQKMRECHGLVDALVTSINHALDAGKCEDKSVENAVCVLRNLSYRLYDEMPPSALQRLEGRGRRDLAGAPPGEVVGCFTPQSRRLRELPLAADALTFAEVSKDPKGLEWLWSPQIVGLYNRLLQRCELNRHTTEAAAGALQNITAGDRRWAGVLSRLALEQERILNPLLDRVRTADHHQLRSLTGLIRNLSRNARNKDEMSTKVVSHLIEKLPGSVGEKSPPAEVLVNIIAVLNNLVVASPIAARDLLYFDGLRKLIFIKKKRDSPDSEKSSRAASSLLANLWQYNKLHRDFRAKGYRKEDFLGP
B2: Catenin alpha-3 (Homo sapiens), Q9UI47-1 (parent)
chain: B1 chain
partner: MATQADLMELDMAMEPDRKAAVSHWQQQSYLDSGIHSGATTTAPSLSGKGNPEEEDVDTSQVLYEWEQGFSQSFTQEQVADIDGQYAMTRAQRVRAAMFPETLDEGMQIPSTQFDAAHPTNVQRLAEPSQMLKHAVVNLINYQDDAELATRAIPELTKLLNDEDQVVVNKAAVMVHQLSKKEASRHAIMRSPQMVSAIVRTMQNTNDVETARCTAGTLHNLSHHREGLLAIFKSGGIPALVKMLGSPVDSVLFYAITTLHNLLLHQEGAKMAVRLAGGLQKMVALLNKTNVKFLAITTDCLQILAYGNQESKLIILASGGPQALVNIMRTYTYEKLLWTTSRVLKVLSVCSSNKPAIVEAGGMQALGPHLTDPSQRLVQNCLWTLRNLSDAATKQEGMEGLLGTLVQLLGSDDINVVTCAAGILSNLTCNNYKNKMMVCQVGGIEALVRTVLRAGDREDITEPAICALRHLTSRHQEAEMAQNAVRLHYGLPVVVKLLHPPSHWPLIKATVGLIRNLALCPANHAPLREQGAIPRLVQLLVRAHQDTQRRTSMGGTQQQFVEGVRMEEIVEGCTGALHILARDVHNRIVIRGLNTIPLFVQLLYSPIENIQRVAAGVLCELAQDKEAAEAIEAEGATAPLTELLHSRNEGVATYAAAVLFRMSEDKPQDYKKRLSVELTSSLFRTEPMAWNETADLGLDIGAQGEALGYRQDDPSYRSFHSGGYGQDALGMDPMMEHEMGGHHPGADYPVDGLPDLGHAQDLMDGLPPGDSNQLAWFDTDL
B3: Catenin alpha-3 (Homo sapiens), Q9UI47-1 (parent)
chain: B1 chain
partner: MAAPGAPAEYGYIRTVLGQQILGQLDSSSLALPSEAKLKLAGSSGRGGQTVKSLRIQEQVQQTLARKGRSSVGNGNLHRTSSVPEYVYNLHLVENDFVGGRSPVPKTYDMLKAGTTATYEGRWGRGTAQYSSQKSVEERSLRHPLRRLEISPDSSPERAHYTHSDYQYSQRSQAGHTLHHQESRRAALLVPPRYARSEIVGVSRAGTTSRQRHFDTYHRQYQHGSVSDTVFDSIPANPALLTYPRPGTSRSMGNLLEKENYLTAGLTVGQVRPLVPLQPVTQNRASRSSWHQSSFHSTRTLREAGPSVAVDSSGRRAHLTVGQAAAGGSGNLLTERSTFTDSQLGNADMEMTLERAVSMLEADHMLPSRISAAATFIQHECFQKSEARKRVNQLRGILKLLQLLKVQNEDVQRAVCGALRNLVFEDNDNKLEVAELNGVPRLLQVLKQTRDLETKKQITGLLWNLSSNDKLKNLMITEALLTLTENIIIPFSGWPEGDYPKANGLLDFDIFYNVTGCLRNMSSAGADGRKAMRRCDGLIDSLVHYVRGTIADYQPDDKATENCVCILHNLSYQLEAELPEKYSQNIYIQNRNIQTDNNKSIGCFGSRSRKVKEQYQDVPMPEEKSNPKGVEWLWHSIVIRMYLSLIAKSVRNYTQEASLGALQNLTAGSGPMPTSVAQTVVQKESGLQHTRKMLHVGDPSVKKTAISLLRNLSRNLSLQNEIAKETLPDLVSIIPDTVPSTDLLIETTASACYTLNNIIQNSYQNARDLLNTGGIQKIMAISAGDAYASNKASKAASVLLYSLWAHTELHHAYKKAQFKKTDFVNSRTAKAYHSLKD
B4: Catenin alpha-3 (Homo sapiens), Q9UI47-1 (parent)
chain: B1 chain
B5: Catenin alpha-3 (Homo sapiens), Q9UI47-1 (parent)
chain: B1 chain
partner: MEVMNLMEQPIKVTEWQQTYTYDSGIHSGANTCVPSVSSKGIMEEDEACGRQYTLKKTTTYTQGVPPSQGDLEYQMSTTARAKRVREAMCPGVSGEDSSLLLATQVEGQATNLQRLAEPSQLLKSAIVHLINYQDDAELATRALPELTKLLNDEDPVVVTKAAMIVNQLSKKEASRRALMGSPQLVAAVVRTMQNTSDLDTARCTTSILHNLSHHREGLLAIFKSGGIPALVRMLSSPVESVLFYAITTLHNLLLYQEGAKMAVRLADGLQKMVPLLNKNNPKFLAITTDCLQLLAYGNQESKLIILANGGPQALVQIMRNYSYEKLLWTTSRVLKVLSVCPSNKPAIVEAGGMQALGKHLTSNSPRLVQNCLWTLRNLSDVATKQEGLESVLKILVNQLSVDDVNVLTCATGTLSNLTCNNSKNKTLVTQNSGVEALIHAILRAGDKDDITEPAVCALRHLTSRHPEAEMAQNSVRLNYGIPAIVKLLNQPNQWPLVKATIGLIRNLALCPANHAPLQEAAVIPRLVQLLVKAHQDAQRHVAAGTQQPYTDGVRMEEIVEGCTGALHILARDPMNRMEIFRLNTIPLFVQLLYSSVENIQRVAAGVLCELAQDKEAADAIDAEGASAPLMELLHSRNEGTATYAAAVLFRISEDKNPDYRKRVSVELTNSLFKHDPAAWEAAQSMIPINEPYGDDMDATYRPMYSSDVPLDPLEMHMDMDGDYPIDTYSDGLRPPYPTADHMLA

Variants of: B1
Details: with pkp3_human PKP3, Q9Y446

Row | effect of a mutation on the interaction | Variant
1 | with no effect | V94D

Variants of: B2
Details: with ctnb1_rat Ctnnb1, Q9WU82

Row | effect of a mutation on the interaction | Variant
2 | with no effect | V94D

Variants of: B3
Details: with PKP2, Q99959-2

Row | effect of a mutation on the interaction | Variant
3 | with no effect | V94D

Variants of: B4
Details: with ctnb1_human CTNNB1, P35222

Row | effect of a mutation on the interaction | Variant
4 | disrupting interaction strength | V94D

Variants of: B4
Details: with ctnb1_human CTNNB1, P35222
Remark: another data set of the same source

Row | effect of a mutation on the interaction | Variant
5 | decreasing interaction strength | V94D

Variants of: B4
Details: with ctnb1_mouse Ctnnb1, Q02248

Row | effect of a mutation on the interaction | Variant
6 | disrupting interaction strength | V94D

Variants of: B5
Details: with plak_human JUP

Row | effect of a mutation on the interaction | Variant
7 | disrupting interaction strength | V94D
